Drawing on publication PMC10644352, “Bromodomain Factor 5 as a Target for Antileishmanial Drug Discovery” (ACS Infectious Diseases, 2023), this text covers Kd and ΔTm for three substances.

Test [1] addresses 5-FAM-labeled H2B(9-23)K9Ac K15Ac K19Ac K21Ac peptide of L. donovani histone H2B (Leishmania donovani). As to the kind of experiment: fluorescence polarisation; 800 nM 5-FAM peptide, protein 0-300 μM; 20 mM HEPES, 500 mM NaCl, 1 mg/mL BSA, pH 7.5; 30 min at room temperature; one-site-specific binding fit (two-site for BD5T); n = 3. On the technique in general: In fluorescence polarisation assays a small probe gives low polarisation when free and higher when bound to something large.

The target of test [2] is 5-FAM-labeled H2B(17-23)K19Ac K21Ac peptide of L. donovani histone H2B (Leishmania donovani). The test is described as above.
Test [3] addresses 5-FAM-labeled H2B(8-16)K9Ac K15Ac peptide of L. donovani histone H2B (Leishmania donovani). The test is described as above.
Test [4] addresses unlabeled pan-acetylated peptide based on the H2B(9-23) sequence of L. donovani histone H2B (Leishmania donovani). As to the kind of experiment: thermal shift assay; 2.1 μM BD5T, 2x SYPRO orange, peptide at 400 μM, 20 mM HEPES, 500 mM NaCl, pH 7.5; 25 to 95 °C; n = 6.

As a reminder, the Kd is a measure of binding affinity in units of concentration. Read a low Kd as higher affinity. For orientation: ΔTm means the change in melting temperature against a reference sample.

As for “Leishmania donovani bromodomain factor 5 (LdBDF5) second bromodomain, recombinant BD5.2 (domain or fragment)”, the dissociation constant Kd in test [1] was determined as 463 µM; in test [2], 160 µM; in test [3] it was 366 µM.

In the case of “Leishmania donovani bromodomain factor 5 (LdBDF5) first bromodomain, recombinant BD5.1 (domain or fragment)”, the dissociation constant Kd in test [1] was found to be 117 µM; in test [2] it was 77.5 µM; in test [3], 170 µM.

With “Leishmania donovani bromodomain factor 5 (LdBDF5) tandem bromodomain pair, recombinant BD5T (domain or fragment)”, the ΔTm at 400 μM peptide in test [4] is 0.6 °C.
